Results: article PMC7784741 (Protein Science : A Publication of the Protein Society, 2020)

Biological target: YAP-binding domain of human TEAD4, TEAD4 217-434 (human, UniProt Q15561 217-434, biotin (N-biotinylated Avi tag))
Assay: AlphaScreen or HTRF

YAP-binding domain of human TEAD4, TEAD4 217-434, sequence (Q15561 217-434): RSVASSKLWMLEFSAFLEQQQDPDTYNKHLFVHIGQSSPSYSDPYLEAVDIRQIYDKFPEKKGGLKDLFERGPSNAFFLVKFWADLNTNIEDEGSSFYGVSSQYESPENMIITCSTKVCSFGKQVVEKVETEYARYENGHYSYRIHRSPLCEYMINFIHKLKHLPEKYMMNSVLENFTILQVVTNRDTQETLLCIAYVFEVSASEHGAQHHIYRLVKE

B1: YAP 60-100 (partner of TEAD4 in the TR-FRET assay) (peptide)
peptide: DSETDLEALFNAVMNPKTANVPQTVPMRLRKLPDSFFKPPE
B1: binds.
